Reference: patent US20260201015A1 (published 2026)

T1: secretin (SCT) (UniProt P09683 28-54, fluorescently labeled (FAM or TAMRA) in FP assays, site not stated)
T1 peptide: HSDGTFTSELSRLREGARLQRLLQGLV

T2: parathyroid hormone (PTH) peptide (UniProt P01270 32-65, TAMRA label in FP assays (PTH-TAMRA), site not stated; biotinylated in yeast display)
T2 peptide: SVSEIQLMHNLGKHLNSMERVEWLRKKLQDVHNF


Key:
[1] = molecular target: glucagon (GCG) (UniProt P01275 53-81, fluorescently labeled (FAM or TAMRA) in FP assays, site not stated; biotinylated in yeast display); test: FP
glucagon (GCG), sequence (P01275 53-81): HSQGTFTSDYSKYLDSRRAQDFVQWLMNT

[2] = molecular target: T1, secretin (SCT); test: FP
[3] = molecular target: T2, parathyroid hormone (PTH) peptide; test: Split NanoBiT titration

Kd [1] [nM] | Kd [2] [nM] | Kd [3] [nM] | Binder
< 0.5 | 1.42 | – | GCG_C09 (RF Diffusion/Partial diffusion), partially diffused GCG binder, SEQ ID NO: 8 (designed binder) SMEKLAEIMQEIIEAYQEVKDAFFKFIKAVHEGAPEEELKKYLEKMKEALEKMKELLERLEKEAKKVIEENKDKKLELKVLLMLRLAYLLLKVSIELTKIAAEKLGDKELVEELEKESKEVEKKIKELEERIKKLLEEVDDEELKEAYKEVEEMEKEAEKFLEKMRKV
– | – | > 1000 | parametrically designed PTH binder (SEQ ID NO: 1) (designed binder) SQELIEELIKLAKELAEIKDEEERRKIKRELERLAEELKEAPASSLLRALALLVIALALIQAAESEEERERARELLERLEELLRELEKQITDERFKEILRELEELAKELKKQL
